{"source": "patent US20260285964", "about": "(published 2026)", "binders": {"B1": {"name": "HB0034 (antibody, V domains shown)", "VH": "QVQLVQSGAEVKKPGASVKVSCKASGYTFTSSWMHWAKQAPGQGLEWIGEIHPNSAKTNYNQKFQGRVTMTRDTSISTAYMELSRLRSDDTAVYYCARVDYGKPWFAYWGQGTLVTVSS", "VL": "QIVLTQSPGTLSLSPGERATLSCRASSSVSSSYLHWYQQKPGQAPRLWIYSTSSRATGIPDRFSGSGSGTDFTLTISRLEPEDFATYYCQQFQSSPLTFGQGTKLEIK"}}, "key": {"mouse IL-36R (IL-1Rrp2)": {"molecular_target": "T1, mouse IL-36R (IL-1Rrp2) (mouse, UniProt Q9ERS7)", "T1 chain": "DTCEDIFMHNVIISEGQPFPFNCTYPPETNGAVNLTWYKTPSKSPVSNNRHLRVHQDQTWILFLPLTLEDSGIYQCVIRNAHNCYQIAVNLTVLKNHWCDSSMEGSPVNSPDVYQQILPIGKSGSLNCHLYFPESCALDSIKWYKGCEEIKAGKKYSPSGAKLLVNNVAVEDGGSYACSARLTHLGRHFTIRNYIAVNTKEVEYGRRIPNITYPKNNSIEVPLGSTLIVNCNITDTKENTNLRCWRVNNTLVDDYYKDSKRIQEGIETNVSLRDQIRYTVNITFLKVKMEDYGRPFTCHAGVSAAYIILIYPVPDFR"}, "rat IL-36R": {"molecular_target": "T2, rat IL-36R (rat, UniProt Q62929)", "T2 chain": "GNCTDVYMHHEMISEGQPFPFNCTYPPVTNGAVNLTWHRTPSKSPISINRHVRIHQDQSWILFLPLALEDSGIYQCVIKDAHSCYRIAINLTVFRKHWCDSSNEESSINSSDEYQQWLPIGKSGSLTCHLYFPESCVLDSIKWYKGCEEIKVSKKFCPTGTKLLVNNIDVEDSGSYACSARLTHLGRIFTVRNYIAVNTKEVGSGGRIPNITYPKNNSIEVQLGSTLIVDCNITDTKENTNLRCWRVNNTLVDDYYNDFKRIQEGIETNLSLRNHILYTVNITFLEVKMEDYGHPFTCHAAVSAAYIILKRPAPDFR"}}}
{"binder": "B1", "values": [{"measurement": "binding result", "setting": "mouse IL-36R (IL-1Rrp2)", "value": "no binding"}, {"measurement": "binding result", "setting": "rat IL-36R", "value": "no binding"}]}
